Data on 28 sequences can be found in the supplement of paper PMC9170038.

The subject of the series is MS2 coat protein. Nature of the series: apparent KD of MS2 coat protein; designed switch direction (-1 OFF switch, 1 ON switch): 1; higher = weaker reporter binding. A digest of the protocol:
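Stalled E. coli RNA polymerase transcribed designed RNA switches on Illumina chips, which were then titrated with SNAP-549-labelled MS2 coat protein, doubling from 0.7 or 1.5 nM to 3 µM. Steps lasted from 0.8–1.5 h at the lowest concentration to 10–20 min at the highest. The apparent KD is each design's median over clusters of curve-fitted normalised fluorescence.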

The mark [1] stands for this setting: input ligand: microRNA oligo, concentration not stated.
Setting [2] is: Eterna round: R95, input ligand: FMN 200 uM.
Where [3] appears, read: Eterna round: R95, input ligand: microRNA oligo, concentration not stated.
Setting [4] is: Eterna round: R95, input ligand: none.

For “ACUCGGCAGAUAGGAUAUCCUGCAUGGAUAGUAGGAGAAGGAUCGUGCGCACAUGAGGAUCACCCAUGUGCCAAAUAAUAACAA [Reatedor] (Eterna round: R96, puzzle: Same State NG 1)”, the “apparent KD of MS2 coat protein” value turned out to be 11 nM (input ligand: FMN 200 uM), 12.8 nM under setting [1] and 18.4 nM (input ligand: none).

As for “UUAAGCCACGAGCAGGAUAUGUAUUAAAAUACAUGAGGAUCACCCAUGUGCAGGUGUAACACCUGACAGAAGGGCCAAUCGCGGC [Soondi - 1] (puzzle: Same State 2)”, the “apparent KD of MS2 coat protein” value turned out to be 256 nM under setting [2], 366 nM under setting [3] and 461 nM under setting [4].

In the case of “UGCAUACAUGAGGAUCACCCAUGUCAACUUAGUCGAGGAUAUGGGCAGCCCUGAGGCGAACCAGAAGGCGAAUUGU [JL-ss1-3.01 ViennaUCT mod] (puzzle: Same State 1)”, under setting [3], the “apparent KD of MS2 coat protein” value came out at 94.5 nM.

“GAGAGAGGGCGAGGAUAUUCGGUGAUAAUGAUGGGAGAAGGCGCAGACAUGAGGAUCACCCAUGUGGGAAUAAUCCAGAGAGAG [Parity 13 - Jieux - Same State NG 1] (Eterna round: R96, puzzle: Same State NG 1)”: the “apparent KD of MS2 coat protein” value reads like this: (input ligand: FMN 200 uM) 151 nM; under setting [1], 111 nM; (input ligand: none) 185 nM.

“UACUGAGUCGUAGGAUAUGUAGGAUAUGGCGAGAGCUAAGCUUGGAAGUCACUUCUGCCAGAAGGACAGAAGGACGACUCUCUC [pwkr ssNG2 2FMN + F9.14] (Eterna round: R96, puzzle: Same State NG 2)”: the “apparent KD of MS2 coat protein” value reads like this: (input ligand: FMN 200 uM) 705 nM; under setting [1], 237 nM; (input ligand: none) 55.5 nM.

For the sequence “CGAUGAAACUAAGGAAGAAGAGUUGAAGUACAUGAGGAUCACCCAUGUCAGAGCUUUUUGCUCGUCAUGAACAGGAA [JR_SHM208a_Sub005] (puzzle: Sensor for hsa-mir-208a)”, the “apparent KD of MS2 coat protein” value reads like this: under setting [2], 51.9 nM; under setting [3], 32.2 nM; under setting [4], 52.8 nM.

As for “GUGGUCAGACAUGAGGAUCACCCAUGUGGAAUAAAUAACAGACAGGAUAUGUAAUAUAGGAUAUAACAGAAGGGUCGAUUGGUG (Eterna round: R96, puzzle: Same State NG 3)”, the “apparent KD of MS2 coat protein” value under setting [1] was 64.4 nM.

Turning to “UUGCUCGUGUGAGGAUAUGCCGCCGUUUCGGCUGCAGAAGGUACUACGUUACAUGAGGAUCACCCAUGUCUCUGUUGUUUCGUG [salish99_SSNG1_r04_940] (Eterna round: R96, puzzle: Same State NG 1)”, the “apparent KD of MS2 coat protein” value reads like this: (input ligand: FMN 200 uM) 18.1 nM; under setting [1], 13.9 nM; (input ligand: none) 16.5 nM.

In the case of “GCUACCAUUGAAGCCAACAUGAGGAUCACCCAUGUAUGUUGGCAGGAUAUCGAUUGCAAAGCGAUCGAGAAGGGCUAAGGUAGC [Mat - Same State NG 3 - JL Mod - D86] (Eterna round: R96, puzzle: Same State NG 3)”, the “apparent KD of MS2 coat protein” value runs as follows: (input ligand: FMN 200 uM) 92.2 nM; under setting [1], 62.8 nM; (input ligand: none) 117 nM.

For the sequence “GGUAAACAUGAGGAUCACCCAUGUAAUAAUAUGGGAGGAUAUGGGAAUUAAUUAAUUAAACCAGAAGGCCUAAUGG [Mat - Same State 1 - D86] (puzzle: Same State 1)”, the “apparent KD of MS2 coat protein” value under setting [2] came to 133 nM, the “apparent KD of MS2 coat protein” value under setting [3] was found to be 424 nM and the “apparent KD of MS2 coat protein” value under setting [4] is 628 nM.

Take “UCAAGCGCACAUGAGGAUCACCCAUGUACCGAGAGUCGUCGUCGGAGAAUGAUGCAUGCUGCUGCUAUUCCACAUUA [Default title] (puzzle: Sensor for hsa-mir-208a version 2)”: the “apparent KD of MS2 coat protein” value amounted to 89.5 nM under setting [2], 66.8 nM under setting [3] and 85.3 nM under setting [4].

Regarding “GACCGCGAGGAAGGAUAUGGAGCCUUAUUGGCUCCAGAAGGUCCAUAAAGGACAUGAGGAUCACCCAUGUGGGUUGGAGCGGUC [Fiskers NG1ss - 0] (Eterna round: R96, puzzle: Same State NG 1)”, the “apparent KD of MS2 coat protein” value by setting is: (input ligand: FMN 200 uM) 32.8 nM; under setting [1], 96.2 nM; (input ligand: none) 176 nM.

For the sequence “GCUUCACAUGAGGAUCACCCAUGUCUUCGGAGUCGAGGAUAUGGUAACUGUAAACAGUUGCCAGAAGGCGAGGAGC [SS1 - Son of Teenbexe v9] (Eterna round: R96, puzzle: Same State 1)”, the “apparent KD of MS2 coat protein” value was found to be 48.8 nM (input ligand: FMN 200 uM), 55.3 nM under setting [1] and 66 nM (input ligand: none).

Consider “UAAAUACAUGAGGAUCACCCAUGUCAAAAGACAUGAGGAUAUGUACAGUCUUCGGUCUGUACAGAAGGCAUGAAUA [salish99_ss1_r3_097] (Eterna round: R96, puzzle: Same State 1)”, for which the “apparent KD of MS2 coat protein” value by setting is: (input ligand: FMN 200 uM) 52.1 nM; under setting [1], 370 nM; (input ligand: none) 461 nM.

Consider “UUGAACAAUUAAGGAUAUCGAGUACAUAUGUUAAACAUGAGGAUCACCCAUGUGGGUUGCGGUAUCGAGAAGGUAAAUUAGAAG [Mat - Same State NG 2 - JL mod - D57] (Eterna round: R96, puzzle: Same State NG 2)”, for which the “apparent KD of MS2 coat protein” value runs as follows: (input ligand: FMN 200 uM) 22.8 nM; under setting [1], 25.3 nM; (input ligand: none) 34 nM.

For “UAAAUACAUGAGGAUCACCCAUGUCAAAAGACAUGAGGAUAUGUACAGUCUUCGGUCUGUACAGAAGGCAUGAAUA [salish99_ss1_r3_097] (puzzle: Same State 1)”, under setting [3], the “apparent KD of MS2 coat protein” value was 434 nM.

Take “AUAAAACAUGAGGAUCACCCAUGUCAACAAAGUCGAGGAUAUGGGCAAAUAAAAUAAGAACCAGAAGGUGAAUAAU [salish99_ss1_r3_032] (puzzle: Same State 1)”: the “apparent KD of MS2 coat protein” value by setting is: under setting [2], 131 nM; under setting [3], 31.5 nM; under setting [4], 146 nM.

With “GAGUGGCAGUAAGGAUAUAUAAUGAUAAUCACAGUAGAAGGUACUGACAUGAGGAUCACCCAUGUAGGACUAAACCAGAGAGAG [Parity 43 - Jieux - Same State NG 1] (Eterna round: R96, puzzle: Same State NG 1)”, the “apparent KD of MS2 coat protein” value is, setting by setting: (input ligand: FMN 200 uM) 33.8 nM; under setting [1], 20.2 nM; (input ligand: none) 20.1 nM.

Regarding “UUACAGUGCGGGUAGGAUAUGUAGGGUGGUACAUGAGGAUCACCCAUGUAUCCACCCUUCGACCGGCAGAAGGGCCUGUCACUAC [Atarzale] (Eterna round: R96, puzzle: Same State 2)”, the “apparent KD of MS2 coat protein” value is, setting by setting: (input ligand: FMN 200 uM) 14 nM; under setting [1], 12.1 nM; (input ligand: none) 19.8 nM.

With “AGUCCAGCCUGAGCUGGACAAAAGCAUGUACAUGAGGAUCACCCAUGUUCAUGUACAAGUUUUUUGCUCGUCUUAAA [Zipper 52 - 10] (puzzle: Sensor for hsa-mir-208a)”, the “apparent KD of MS2 coat protein” value by setting is: under setting [2], 38.4 nM; under setting [3], 11.1 nM; under setting [4], 39.6 nM.

Turning to “ACAUGAGGAUCACCCAUGUAGGCUCAGGAAACUGUGCCACAUGAGGAUAUGGAUCCUAAUUGGAUCCAGAAGGCAUGAUUUAUU [Fiskers NG3ss - 21] (Eterna round: R96, puzzle: Same State NG 3)”, the “apparent KD of MS2 coat protein” value came out at 243 nM (input ligand: FMN 200 uM), 1240 nM under setting [1] and 1290 nM (input ligand: none).

For “GGUCCAGCCUGAGCUGGACAAAAGCAUGUACAUGAGGAUCACCCAUGUCAUGUACAAGCUUUUUGCUCGUCUUAAGU [Mat - hsa-mir-208a - 86] (puzzle: Sensor for hsa-mir-208a)”, the “apparent KD of MS2 coat protein” value by setting is: under setting [2], 508 nM; under setting [3], 16.8 nM; under setting [4], 927 nM.

In the case of “AAGAGAGGAAGCGAGGAUAUCGUGGGAGGGACAUGAGGAUCACCCAUGUAGGAUGUAGAGAGGAACGAGAAGGCGCAGGAAAGAA [JR_SS2_Sub073] (puzzle: Same State 2)”, the “apparent KD of MS2 coat protein” value is 49 nM under setting [2], 67.7 nM under setting [3] and 79.2 nM under setting [4].

Consider “GUGGUCAGACAUGAGGAUCACCCAUGUGGAAUAAAUAAGGGACAGGAUAUCCAAUAUAGGAUAUAGGAGAAGGGUUGGUUGGUG (Eterna round: R96, puzzle: Same State NG 3)”, for which the “apparent KD of MS2 coat protein” value (input ligand: FMN 200 uM) turned out to be 78.9 nM, the “apparent KD of MS2 coat protein” value under setting [1] was found to be 64.5 nM and the “apparent KD of MS2 coat protein” value (input ligand: none) came to 73.9 nM.

Regarding “GCGAGCGUACUUGCAGACAUGAGGAUCACCCAUGUAACUGGACAGGAUAUGGUACCGUUUCGGUACCAGAAGGGUUUACUCAUG [JL SSNG3 3.57] (Eterna round: R96, puzzle: Same State NG 3)”, the “apparent KD of MS2 coat protein” value turned out to be 67.2 nM (input ligand: FMN 200 uM), 84 nM under setting [1] and 69.1 nM (input ligand: none).

For “GAGUAGUUGAAAGGAUAUUGAUUGUUAUAGAAUCAAGAAGGUUCUAACAUGAGGAUCACCCAUGUAGGACUAUUCCUGUGUAUC [Parity 78 - Jieux - Same State NG 1] (Eterna round: R96, puzzle: Same State NG 1)”, the “apparent KD of MS2 coat protein” value under setting [1] was 9.15 nM.

On to “GUAAAACAUGAGGAUCACCCAUGUCAACAAAGUCGAGGAUAUGGGCAAAUAAAAUAAGAACCAGAAGGCGAAUAAU [salish99_SS1_r3_011] (puzzle: Same State 1)”, for which the “apparent KD of MS2 coat protein” value was 31.6 nM under setting [2], 254 nM under setting [3] and 325 nM under setting [4].

Consider “AACCCGAUGGAAGGAUAUGGCACCUUAUUGGUGCCAGAAGGUCCAAACAUGAGGAUCACCCAUGUGGGCCGGUCGAAAGACCGG [Fiskers NG1ss - 11] (Eterna round: R96, puzzle: Same State NG 1)”, for which the “apparent KD of MS2 coat protein” value (input ligand: FMN 200 uM) worked out at 32.4 nM, the “apparent KD of MS2 coat protein” value under setting [1] is 53.2 nM and the “apparent KD of MS2 coat protein” value (input ligand: none) was determined as 75.2 nM.
